Experimental findings from patent US20240209070A1 (LUNDQUIST INSTITUTE FOR BIOMEDICAL INNOVATION AT HARBOR …, published 2024) are described below.

For experiment [1], the target named is T1, recombinant CotH3 protein of Rhizopus delemar 99-880 (Flag-TEV-CotH3 made in S. cerevisiae) (Rhizopus delemar 99-880 (Rhizopus …, UniProt I1CFE1 18-579)).
T1 sequence: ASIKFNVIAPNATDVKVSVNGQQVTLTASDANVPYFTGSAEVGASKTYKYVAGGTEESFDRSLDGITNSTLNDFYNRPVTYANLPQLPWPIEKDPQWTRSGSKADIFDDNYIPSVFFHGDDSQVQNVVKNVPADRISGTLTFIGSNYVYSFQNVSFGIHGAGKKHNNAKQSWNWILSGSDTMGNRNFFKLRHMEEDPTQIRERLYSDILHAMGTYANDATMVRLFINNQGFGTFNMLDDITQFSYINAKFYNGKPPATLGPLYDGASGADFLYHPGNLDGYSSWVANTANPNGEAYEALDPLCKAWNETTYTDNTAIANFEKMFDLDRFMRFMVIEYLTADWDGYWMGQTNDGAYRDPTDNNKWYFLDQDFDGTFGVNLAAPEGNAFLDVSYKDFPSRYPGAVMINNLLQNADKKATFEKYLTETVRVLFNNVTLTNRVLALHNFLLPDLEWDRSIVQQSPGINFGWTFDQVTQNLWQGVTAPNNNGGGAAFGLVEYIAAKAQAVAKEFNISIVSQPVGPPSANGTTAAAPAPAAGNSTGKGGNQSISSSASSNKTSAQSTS

Experiment [2] deals with T1, recombinant CotH3 protein of Rhizopus …. The experiment can be described thus: not stated (conclusions; reported affinity).
For experiment [3] the target is unchanged. The experiment can be described thus: dose response of Fnorm [per mille] against ligand concentration [M], Kd model, On Time 20s, TargetConc 5nM, Unbound 829.3, Bound 803.3, amplitude 26.0, signal to noise 20.5; method and antigen not named in the filing's text.
For experiment [4] the target is unchanged. The experiment can be described thus: method and antigen form not stated.
For experiment [5] the target is unchanged. Briefly: BLI (Gator), antibody on Protein G sensor, CotH3 6.25-400 nM, 25 C.
Procedure: (§1) The purified preparations were then used to assess the affinity of each clone for the CotH3 antigen by biolayer interferometry using Gator system (ProbeLife). Under the assumption that the CotH3 antigen provided by Vitalex behaves as a normal soluble monomeric protein, a Protein G coated sensor probe (ProbeLife, catalog #160006) was loaded with the bivalent antibody test clone at a concentration of 5 μg/ml in ProbeLife's kinetic buffer (PBS pH 7.4, 0.02% BSA, 0.002% Tween-20, 0.005% NaN₃). […] All reactions were performed at 25° C. The values are chosen when three or more concentrations yield the same kinetic values.
For experiment [6] the target is unchanged. The experiment can be described thus: BLI (Gator), from the KD values of Table 5.
Procedure: as §1
For experiment [7] the target is unchanged. The experiment can be described thus: BLI (Gator), antibody from culture medium on Protein G sensor.
For the next experiment, the target named is T2, Rhizopus delemar (Rhizopus delemar).
T2 construct: native, on paraformaldehyde-fixed spores; also called cell-surface CotH antigen on Rhizopus delemar spores
Briefly: flow cytometry on fixed Rhizopus delemar spores, 20 ug/ml antibody; blank 'Hu 2nd Only' median 565.83, mean 592.76.

For the next experiment, the target named is T3, Rhizomucor (Rhizomucor (species not given)).
T3 construct: native, on paraformaldehyde-fixed spores; also called cell-surface CotH antigen on Rhizomucor spores
Briefly: flow cytometry on fixed Rhizomucor spores, 20 ug/ml antibody; blank 'Hu 2nd Only' median 257.20, mean 272.52. A general note: A flow cytometer gives signals particle by particle.

Experiment [8] has as its target T4, Cunninghamella bertholletiae (Cunninghamella bertholletiae).
T4 construct: native, on paraformaldehyde-fixed spores; also called cell-surface CotH antigen on Cunninghamella bertholletiae spores
The experiment can be described thus: flow cytometry on fixed Cunninghamella bertholletiae spores, 20 ug/ml antibody; blank 'Hu 2nd Only' median 241.78, mean 250.81.

In another experiment the target is T5, Mucor circinelloides (Mucor circinelloides).
T5 construct: native, on paraformaldehyde-fixed spores; also called cell-surface CotH antigen on Mucor circinelloides spores
The experiment can be described thus: flow cytometry on fixed Mucor circinelloides spores, 20 ug/ml antibody; blank 'Hu 2nd Only' median 990.21, mean 1062.19.

Positions count from the first letter of the chain named. Where two headings read alike, the source gives them in different places.

B1: mouse anti-CotH3 monoclonal antibody clone C2 (antibody, V domains shown)
VH: DLQLQESGPSLVKPSQTLSLTCSVTGDSITSGYWNWIRKFPGNKLEHMGYIKYSGRTFYNPSLKSRVSITRDTSKNQYYLQLNSVTSEDTATYYCASRGYWGQGTTLTVSS
VL: DVVMTQTPLSLSVTIGQPASISCKSSQSLLYSNGKTYLNWLQQRPGQAPKLLMFQVSKPGIPDRFSGSGSETDFTLKISRVEAEDLGVYYCLQGTYFPHTFGAGTKVEIK
notes: also called 6E11A8 mAb; mAb
As a reminder, the Kd is the free concentration of one partner at which half of the binding sites on the other are occupied at equilibrium, for simple one-to-one binding. In general, koff refers to the rate constant with which the complex falls apart. Broadly, the kon is the rate constant with which the complex forms. On to B1, for which the Kd in experiment [1] is 58.9 nM; in experiment [2], around 50 nM; in [3], 40.4 nM; in [4], around 40 nM. Moreover, the koff in [1] was determined as 0.00141 s⁻¹. In addition, the kon in experiment [1] came out at 23900 M⁻¹ s⁻¹.

B2: C2 Chimera 2 (C2 VH on human IgG1 constant region with AvantGen cloned variable kappa on human kappa constant region) (antibody, V domains shown)
VH: B1 VH
VL: DVVMTQTPLSLSVTIGQPASISCKSSQSLLYSNGKTYLNWLQQRPGQAPKLLMFQVSKPGIPDRFSGSGSETDFTLKISRVEAEDLGVYYCLQGTYFPHTFGAGTKVEIKR
notes: also called AvantGen LC-chimera
On to B2, for which, in experiment [5], the Kd amounted to 1.8 nM, the koff turned out to be 0.00111 s⁻¹ and the kon was 627000 M⁻¹ s⁻¹. In experiment [6], the “fold improvement in affinity over the parental mouse mAb” value was determined as 33 fold.

B3: humanized variant LC2:HC1 (antibody, V domains shown)
VH: QVQLQESGPGLVKPSETLSLTCTVSGDSITSGYWSWIRQPPGKGLEWIGYIKYSGRTNYNPSLKSRVTISRDTSKNQFSLKLSSVTAADTAVYYCASRGYWGQGTLVTVSS
VL: DIVMTQTPLSLSVTPGQPASISCKSSQSLLDSDGKTFLNWLLQKPGQSPQLLIYLVSKLDSGVPDRFSGSGSGTDFTLKISRVEAEDVGVYYCWQGTHFPHTFGQGTKVEIKR
Take B3: in [7], the binding result was “no binding (tested: 30 nM CotH3)”.

B4: humanized variant Grafted LC:HC1 (antibody, V domains shown)
VH: B3 VH
VL: DIVMTQTPLSLSVTPGQPASISCKSSQSLLDSDGKTFLYWYLQKPGQSPQLLIYLVSSRFSPDRFSGSGSGTDFTLKISRVEAEDVGVYYCWQGTHFPHTFGQGTKVEIKR
Regarding B4, the binding result in [7] is “no binding (tested: 30 nM CotH3)”.

B5: humanized variant LC3:HC1 (antibody, V domains shown)
VH: B3 VH
VL: B3 VL with L51R
Regarding B5, the binding result in experiment [7] is listed as “no binding (tested: 30 nM CotH3)”.

B6: humanized variant LC1:HC1 (antibody, V domains shown)
VH: B3 VH
VL: B3 VL with N39Y, L41Y
For B6, in experiment [7], the binding result is recorded as “no binding (tested: 30 nM CotH3)”.

B7: humanized variant LC1:HC2 (antibody, V domains shown)
VH: B3 VH with W47H, N58F
VL: B3 VL with N39Y, L41Y
B7: the binding result in experiment [7] is “no binding (tested: 30 nM CotH3)”.

B8: humanized variant LC1:HC3 (antibody, V domains shown)
VH: B3 VH with S35N, W47H, N58F
VL: B3 VL with N39Y, L41Y
Regarding B8, the binding result in [7] is given as “no binding (tested: 30 nM CotH3)”.

B9: humanized anti-CotH3 antibody LC3:HC2 (antibody, human IgG1, kappa, V domains shown)
VH: B3 VH with W47H, N58F
VL: B3 VL with L51R
notes: also called L3:H2; IgG anti-CotH3-LC3HC2
As to B9, the “Mean: FITC-A” value with Rhizopus delemar was 21800; with Rhizomucor it was 35900; in experiment [8], 35600; with Mucor circinelloides it was 43200. In addition, the “Median: FITC-A” value amounted to 20600 with Rhizopus delemar, 35900 with Rhizomucor, 34900 in experiment [8] and 37100 with Mucor circinelloides.

B10: humanized variant LC2:Grafted HC (antibody, V domains shown)
VH: B3 VH with R71V
VL: B3 VL
In the case of B10, the binding result in [7] is on record as “no binding (tested: 30 nM CotH3)”.

B11: humanized anti-CotH3 antibody LC2:HC3 (antibody, human IgG1, kappa, V domains shown)
VH: B3 VH with S35N, W47H, N58F
VL: B3 VL
notes: also called L2:H3; IgG anti-CotH3-LC2HC3
For B11, the “Mean: FITC-A” value is 28900 in the experiment with Rhizopus delemar, 29000 in the experiment with Rhizomucor, 29800 in experiment [8] and 40600 with Mucor circinelloides. Further, the “Median: FITC-A” value with Rhizopus delemar amounted to 27700; with Rhizomucor it was 29000; in experiment [8], 29200; in the experiment with Mucor circinelloides it was 36500.

B12: humanized anti-CotH3 antibody LC3:HC3 (antibody, human IgG1, kappa)
heavy: not shown
light: DIVMTQTPLSLSVTPGQPASISCKSSQSLLDSDGKTFLNWLLQKPGQSPQRLIYLVSKLDSGVPDRFSGSGSGTDFTLKISRVEAEDVGVYYCWQGTHFPHTFGQGTKVEIKRTVAAPSVFIFPPSDEQLKSGTASVVCLLNNFYPREAKVQWKVDNALQSGNSQESVTEQDSKDSTYSLSSTLTLSKADYEKHKVYACEVTHQGLSSPVTKSFNRGEC
notes: also called VX01; L3:H3
Turning to B12, the “Mean: FITC-A” value amounted to 18200 with Rhizopus delemar, 19800 in the experiment with Rhizomucor, 19300 in experiment [8] and 22500 in the experiment with Mucor circinelloides. Besides, the “Median: FITC-A” value was 17000 with Rhizopus delemar, 19900 with Rhizomucor, 18900 in experiment [8] and 18800 in the experiment with Mucor circinelloides.

B13: humanized variant LC3:Grafted HC (antibody, V domains shown)
VH: B3 VH with R71V
VL: B3 VL with L51R
Regarding B13, the binding result in experiment [7] was “no binding (tested: 30 nM CotH3)”.
